The chains are these.
B1: OR4K15 (parent)
chain: GUUAACGGUCAUAGGCCAUGGAAACUAGGAGCACCAUUUCGCUGCCAGUGAAGAAAUGAACAAAGAAAAUCUGGGCCAGGCAGGCAUCAAAAGAAAUAGUCUUGCGCUCAACCAGAAAGUCUGUAAUCAUUUUAAGGGUA

In the series the parent is B1. Briefly: self-cleavage, relative activity (ratio to wild type); higher = more cleavage; in vitro, sequencing; the parent is a self-cleaving ribozyme.
With GUUAACGGUCAUAGGCCAUGGAAACUAGGAGCACCAUUUCGCUGCCAGUGAAGAAAUGAGCAAAGAAAAUCUGGGCCAGGCAGGCAUCAAAAGAAAUAGUCCUGCGCUCAACCAGAAAGUCUGUAAUCAUUUUAAGGGUA [A60G U102C], the self-cleavage was 1.4.
With GUUAACGGUCAUAGGCCAUGGAAACUAGGAGCACCAUUUCGCUGCCAGUGAAGAAAUGAGCAAAGAAAAUCUGGGUCAGGCAGGCAUCAAAAGAAAUAGUCUUGCGCUCAACCAGAAAGUCUGUAAUCAUUUUAAGGGUA [A60G C76U] the figure was 0.13.
For the variant GUUAACGGUCAUAGGCCAUGGAAACUAGGAGCACCAUUUCGCUGCCAGUGAAGAAAUGAGCAAAGAAAAUCUGGGCCAGGCAAGCAUCAAAAGAAAUAGUCUUGCGCUCAACCAGAAAGUCUGUAAUCAUUUUAAGGGUA [A60G G83A], the self-cleavage came out at 1.3.
GUUAACGGUCAUAGGCCAUGGAAACUAGGAGCACCAUUUCGCUGCCAGUGAAGAAAUGAGCAAAGAAAAUCUGGGCCAGGCAGGCAUCAAAAGAUAUAGUCUUGCGCUCAACCAGAAAGUCUGUAAUCAUUUUAAGGGUA [A60G A95U]: the self-cleavage turned out to be 0.97.
With GUUAACGGUCAUAGGCCAUGGAAACUAGGAGCACCAUUUCGCUGCCAGUGAAGAAAUGAGCAAAGAAAAUCUGGGCCAGGCAGGCAUCAAAAGAGAUAGUCUUGCGCUCAACCAGAAAGUCUGUAAUCAUUUUAAGGGUA [A60G A95G], the self-cleavage is 1.63.
Turning to GUUAACGGUCAUAGGCCAUGGAAACUAGGAGCACCAUUUCGCUGCCAGUGAAGAAAUGAGCAAAGAAAAUCUGGGCCAGGCAGGCAUCAAAAGACAUAGUCUUGCGCUCAACCAGAAAGUCUGUAAUCAUUUUAAGGGUA [A60G A95C], the self-cleavage amounted to 1.
Regarding GUUAACGGUCAUAGGCCAUGGAAACUAGGAGCACCAUUUCGCUGCCAGUGAAGAAAUGAGCAAAGAAAAUCUGGGCCAGGCAGGCAUCAAAAGAAAUAGUCUUGCGCUCAACCAGAGAGUCUGUAAUCAUUUUAAGGGUA [A60G A117G], the self-cleavage came to 1.55.
With GUUAACGGUCAUAGGCCAUGGAAACUAGGAGCACCAUUUCGCUGCCAGUGAAGAAAUGAGCAAAGAAAAUCUGGGCCAGGCAGGCAUCAAAAGAAAUAGUCUUGCGCUCAACCAGACAGUCUGUAAUCAUUUUAAGGGUA [A60G A117C] the figure was 0.3.
In the case of GUUAACGGUCAUAGGCCAUGGAAACUAGGAGCACCAUUUCGCUGCCAGUGAAGAAAUGAGCAAAGAAAAUCUGGGCCAGGCAGGCAUCAGAAGAAAUAGUCUUGCGCUCAACCAGAAAGUCUGUAAUCAUUUUAAGGGUA [A60G A90G], the self-cleavage amounted to 0.4.
Turning to GUUAACGGUCAUAGGCCAUGGAAACUAGGAGCACCAUUUCGCUGCCAGUGAAGAAAUGAGCAAAGAAAAUCUGGGCCAGGCAGGCAUCAUAAGAAAUAGUCUUGCGCUCAACCAGAAAGUCUGUAAUCAUUUUAAGGGUA [A60G A90U], the self-cleavage came to 1.84.
In the case of GUUAACGGUCAUAGGCCAUGGAAACUAGGAGCACCAUUUCGCUGCCAGUGAAGAAAUGAGCAAAGAAAAUCUGGGCCAGGCAGGCAUCAAAAGAAAUAGUCUUGCGCUCAACCGGAAAGUCUGUAAUCAUUUUAAGGGUA [A60G A114G], the self-cleavage came to 0.31.
With GUUAACGGUCAUAGGCCAUGGAAACUAGGAGCACCAUUUCGCUGCCAGUGAAGAAAUGAGCAAAGAAAAUCUGGGCCAGGCAGGCAUCAAAAGAAAUAGUCUUGCGCUCAACCAGAAAGUCUGUAAUCAUUUUAAGGGUU [A60G A140U], the self-cleavage was 1.06.
GUUAACGGUCAUAGGCCAUGGAAACUAGGAGCACCAUUUCGCUGCCAGUGAAGAAAUGAGCAAAGAAAAUCUGGGCCAGGCAGGCAUCAAAAGAAAUAGUCUUGCGCUCAACCAGAAAGUCUGUAAUCAUUUUAUGGGUA [A60G A135U]: the self-cleavage was found to be 1.41.
Turning to GUUAACGGUCAUAGGCCAUGGAAACUAGGAGCACCAUUUCGCUGCCAGUGAAGAAAUGAGCAAAGAAAAUCUGGGCCAGGCAGGCAUCAAAAGAAAUAGUCUUGCGCUCAACCAGAAAGUCUGUAAUUAUUUUAAGGGUA [A60G C128U], the self-cleavage is 1.12.
In the case of GUUAACGGUCAUAGGCCAUGGAAACUAGGAGCACCAUUUCGCUGCCAGUGAAGAAAUGAGCAAAGAAAAUCUGGGCCAGGCAGGCAUCAAAAGAAAUAGUCUUGCGCUCAACCAGAAAGUCUGUAAUCUUUUUAAGGGUA [A60G A129U], the self-cleavage stood at 1.14.
GUUAACGGUCAUAGGCCAUGGAAACUAGGAGCACCAUUUCGCUGCCAGUGAAGAAAUGAGCAAAGAAAAUCUGGGCCAGGCAGGCAUCAAAAGAAAUAGUCUUGCACUCAACCAGAAAGUCUGUAAUCAUUUUAAGGGUA [A60G G106A]: the self-cleavage was 0.02.
To GUUAACGGUCAUAGGCCAUGGAAACUAGGAGCACCAUUUCGCUGCCAGUGAAGAAAUGAGCAAAGAAAAUCUGGGCUAGGCAGGCAUCAAAAGAAAUAGUCUUGCGCUCAACCAGAAAGUCUGUAAUCAUUUUAAGGGUA [A60G C77U] belongs 2.13; to GUUAACGGUCAUAGGCCAUGGAAACUAGGAGCACCAUUUCGCUGCCAGUGAAGAAAUGAGCAAAGAAAAUCUGGGCCAGUCAGGCAUCAAAAGAAAUAGUCUUGCGCUCAACCAGAAAGUCUGUAAUCAUUUUAAGGGUA [A60G G80U], 0.09.
On to GUUAACGGUCAUAGGCCAUGGAAACUAGGAGCACCAUUUCGCUGCCAGUGAAGAAAUGAGCAAAGAAAAUCUGGGCCAGGCAGGCAUCAAAAGAAAUAGUCUUGCGCUCAAACAGAAAGUCUGUAAUCAUUUUAAGGGUA [A60G C112A], for which the self-cleavage came out at 0.02.
As to GUUAACGGUCAUAGGCCAUGGAAACUAGGAGCACCAUUUCGCUGCCAGUGAAGAAAUGAGCAAAGAAAAUCUGGGCCAGGCAGGCAUCAAAAGAAAUAUUCUUGCGCUCAACCAGAAAGUCUGUAAUCAUUUUAAGGGUA [A60G G99U], the self-cleavage came out at 0.38.
With GUUAACGGUCAUAGGCCAUGGAAACUAGGAGCACCAUUUCGCUGCCAGUGAAGAAAUGAGCAAAGAAAAUCUGGGCCAGGCAGGCAUCAAAAGAAAUAGUCUUGCGCUAAACCAGAAAGUCUGUAAUCAUUUUAAGGGUA [A60G C109A] the figure was 0.21.
On to GUUAACGGUCAUAGGCCAUGGAAACUAGGAGCACCAUUUCGCUGCCAGUGAAGAAAUGAGCAAAGAAAAUCUGGGCCAGGCAGGCAUCAAAAGAAAUAGUCUUGCGCUCAACCAGAAAGACUGUAAUCAUUUUAAGGGUA [A60G U120A], for which the self-cleavage amounted to 1.93.
For GUUAACGGUCAUAGGCCAUGGAAACUAGGAGCACCAUUUCGCUGCCAGUGAAGAAAUGAGCAAAGAAAAUCUGGGCCAGGCAGGCAUCAAAAGAAAUAGACUUGCGCUCAACCAGAAAGUCUGUAAUCAUUUUAAGGGUA [A60G U100A], the self-cleavage was 0.52.
For GUUAACGGUCAUAGGCCAUGGAAACUAGGAGCACCAUUUCGCUGCCAGUGAAGAAAUGAGCAAAGAAAAUCUGGGCCAGGCAGGCAUCAAAAGAAAUAGUCUUGAGCUCAACCAGAAAGUCUGUAAUCAUUUUAAGGGUA [A60G C105A], the self-cleavage came to 0.04.
To GUUAACGGUCAUAGGCCAUGGAAACUAGGAGCACCAUUUCGCUGCCAGUGAAGAAAUGAGCAAAGAAAAUCUGGGCCAGGCAGGCAUCAAAAGAAAUAGUCUUGGGCUCAACCAGAAAGUCUGUAAUCAUUUUAAGGGUA [A60G C105G] belongs 0.01; to GUUAACGGUCAUAGGCCAUGGAAACUAGGAGCACCAUUUCGCUGCCAGUGAAGAAAUGAGCAAAGAAAAUCUGGGCCAGGCAGGCAUCAAAAGAAAUAGUCUUGCGCUCCACCAGAAAGUCUGUAAUCAUUUUAAGGGUA [A60G A110C], 0.4.
As for GUUAACGGUCAUAGGCCAUGGAAACUAGGAGCACCAUUUCGCUGCCAGUGAAGAAAUGAGCAAAGAAAAGCUGGGCCAGGCAGGCAUCAAAAGAAAUAGUCUUGCGCUCAACCAGAAAGUCUGUAAUCAUUUUAAGGGUA [A60G U70G], the self-cleavage came to 1.65.
Regarding GUUAACGGUCAUAGGCCAUGGAAACUAGGAGCACCAUUUCGCUGCCAGUGAAGAAAUGAGCAAAGAAAACCUGGGCCAGGCAGGCAUCAAAAGAAAUAGUCUUGCGCUCAACCAGAAAGUCUGUAAUCAUUUUAAGGGUA [A60G U70C], the self-cleavage stood at 0.8.
To GUUAACGGUCAUAGGCCAUGGAAACUAGGAGCACCAUUUCGCUGCCAGUGAAGAAAUGAGCAAAGAAAAUCUGGGCCAGGCAGGCAACAAAAGAAAUAGUCUUGCGCUCAACCAGAAAGUCUGUAAUCAUUUUAAGGGUA [A60G U87A] belongs 1.02.
For GUUAACGGUCAUAGGCCAUGGAAACUAGGAGCACCAUUUCGCUGCCAGUGAAGAAAUGAGCAAAGAAAAUCUGUGCCAGGCAGGCAUCAAAAGAAAUAGUCUUGCGCUCAACCAGAAAGUCUGUAAUCAUUUUAAGGGUA [A60G G74U], the self-cleavage is 0.18.
As to GUUAACGGUCAUAGGCCAUGGAAACUAGGAGCACCAUUUCGCUGCCAGUGAAGAAAUGAGCAAAGAAAAUCUGGGCCAGGCAGGUAUCAAAAGAAAUAGUCUUGCGCUCAACCAGAAAGUCUGUAAUCAUUUUAAGGGUA [A60G C85U], the self-cleavage came out at 1.31.
Consider GUUAACGGUCAUAGGCCAUGGAAACUAGGAGCACCAUUUCGCUGCCAGUGAAGAAAUGAGCAAAGAAAAUCUGGGCCAGGCAGGCAUCAAAAGAAAUAGUCUUGCGCUCAACUAGAAAGUCUGUAAUCAUUUUAAGGGUA [A60G C113U], for which the self-cleavage worked out at 0.09.
Turning to GUUAACGGUCAUAGGCCAUGGAAACUAGGAGCACCAUUUCGCUGCCAGUGAAGAAAUGAGCAAAGAAAAUCUGGGCCAUGCAGGCAUCAAAAGAAAUAGUCUUGCGCUCAACCAGAAAGUCUGUAAUCAUUUUAAGGGUA [A60G G79U], the self-cleavage was determined as 0.08.
For GUUAACGGUCAUAGGCCAUGGAAACUAGGAGCACCAUUUCGCUGCCAGUGAAGAAAUGAGCAAAGAAAAUCUGGGCCAGGCAGGCAUCAAAAGAAAUGGUCUUGCGCUCAACCAGAAAGUCUGUAAUCAUUUUAAGGGUA [A60G A98G], the self-cleavage worked out at 0.55.
Turning to GUUAACGGUCAUAGGCCAUGGAAACUAGGAGCACCAUUUCGCUGCCAGUGAAGAAAUGAGCAAAGAAAAUCUGGGCCAGGCAGGCAUCAAAAGAAAUAGUCUUGCGCACAACCAGAAAGUCUGUAAUCAUUUUAAGGGUA [A60G U108A], the self-cleavage was found to be 0.02.
In the case of GUUAACGGUCAUAGGCCAUGGAAACUAGGAGCACCAUUUCGCUGCCAGUGAAGAAAUGAGCAAAGAAAAUCUGGGCCAGGCAGGCAUCAAAAGAAAUAGUCUUGCGCCCAACCAGAAAGUCUGUAAUCAUUUUAAGGGUA [A60G U108C], the self-cleavage is 0.03.
Turning to GUUAACGGUCAUAGGCCAUGGAAACUAGGAGCACCAUUUCGCUGCCAGUGAAGAAAUGAGCAAAGAAAAUCUGGGCCAGGCAGGCAUCAAAAGAAAUAGUCUUGCGUUCAACCAGAAAGUCUGUAAUCAUUUUAAGGGUA [A60G C107U], the self-cleavage turned out to be 0.
As for GUUAACGGUCAUAGGCCAUGGAAACUAGGAGCACCAUUUCGCUGCCAGUGAAGAAAUGAGCAAAGAAAAUCUGGGCCAGGCAGGCAUCAAAAGGAAUAGUCUUGCGCUCAACCAGAAAGUCUGUAAUCAUUUUAAGGGUA [A60G A94G], the self-cleavage is 1.37.
GUUAACGGUCAUAGGCCAUGGAAACUAGGAGCACCAUUUCGCUGCCAGUGAAGAAAUGAGCAAAGAAAAUCUGGGCCAGGCAGGCAUCAAAAGAAAUAGUCUUGCGCUCAACCAGAAAGUCUGUUAUCAUUUUAAGGGUA [A60G A125U]: the self-cleavage was determined as 2.64.
In the case of GUUAACGGUCAUAGGCCAUGGAAACUAGGAGCACCAUUUCGCUGCCAGUGAAGAAAUGAGCAAAGAAAAUCUGGGCCAGGCAGGCAUCAAAAGAAAAAGUCUUGCGCUCAACCAGAAAGUCUGUAAUCAUUUUAAGGGUA [A60G U97A], the self-cleavage came to 1.69.
On to GUUAACGGUCAUAGGCCAUGGAAACUAGGAGCACCAUUUCGCUGCCAGUGAAGAAAUGAGCAAAGAAAAUCUGGGCCAGGCAGGCAUCAAAAGAAAUAGUCUUGCGCUCAACCAGAAAGUUUGUAAUCAUUUUAAGGGUA [A60G C121U], for which the self-cleavage was determined as 1.48.

The record behind these values is the RNAGym collection of RNA variant scans (doi:10.7554/elife.90254).
